Paper PMC3619014 (Molecular pharmaceutics, 2012)

Target: human KDR (VEGFR-2) expressed on porcine aortic endothelial cells (PAE/KDR) (human, UniProt P35968 20-1356)
Assay: radioligand binding

Chain of human KDR (VEGFR-2) expressed on porcine aortic endothelial cells (PAE/KDR) (P35968 20-1356): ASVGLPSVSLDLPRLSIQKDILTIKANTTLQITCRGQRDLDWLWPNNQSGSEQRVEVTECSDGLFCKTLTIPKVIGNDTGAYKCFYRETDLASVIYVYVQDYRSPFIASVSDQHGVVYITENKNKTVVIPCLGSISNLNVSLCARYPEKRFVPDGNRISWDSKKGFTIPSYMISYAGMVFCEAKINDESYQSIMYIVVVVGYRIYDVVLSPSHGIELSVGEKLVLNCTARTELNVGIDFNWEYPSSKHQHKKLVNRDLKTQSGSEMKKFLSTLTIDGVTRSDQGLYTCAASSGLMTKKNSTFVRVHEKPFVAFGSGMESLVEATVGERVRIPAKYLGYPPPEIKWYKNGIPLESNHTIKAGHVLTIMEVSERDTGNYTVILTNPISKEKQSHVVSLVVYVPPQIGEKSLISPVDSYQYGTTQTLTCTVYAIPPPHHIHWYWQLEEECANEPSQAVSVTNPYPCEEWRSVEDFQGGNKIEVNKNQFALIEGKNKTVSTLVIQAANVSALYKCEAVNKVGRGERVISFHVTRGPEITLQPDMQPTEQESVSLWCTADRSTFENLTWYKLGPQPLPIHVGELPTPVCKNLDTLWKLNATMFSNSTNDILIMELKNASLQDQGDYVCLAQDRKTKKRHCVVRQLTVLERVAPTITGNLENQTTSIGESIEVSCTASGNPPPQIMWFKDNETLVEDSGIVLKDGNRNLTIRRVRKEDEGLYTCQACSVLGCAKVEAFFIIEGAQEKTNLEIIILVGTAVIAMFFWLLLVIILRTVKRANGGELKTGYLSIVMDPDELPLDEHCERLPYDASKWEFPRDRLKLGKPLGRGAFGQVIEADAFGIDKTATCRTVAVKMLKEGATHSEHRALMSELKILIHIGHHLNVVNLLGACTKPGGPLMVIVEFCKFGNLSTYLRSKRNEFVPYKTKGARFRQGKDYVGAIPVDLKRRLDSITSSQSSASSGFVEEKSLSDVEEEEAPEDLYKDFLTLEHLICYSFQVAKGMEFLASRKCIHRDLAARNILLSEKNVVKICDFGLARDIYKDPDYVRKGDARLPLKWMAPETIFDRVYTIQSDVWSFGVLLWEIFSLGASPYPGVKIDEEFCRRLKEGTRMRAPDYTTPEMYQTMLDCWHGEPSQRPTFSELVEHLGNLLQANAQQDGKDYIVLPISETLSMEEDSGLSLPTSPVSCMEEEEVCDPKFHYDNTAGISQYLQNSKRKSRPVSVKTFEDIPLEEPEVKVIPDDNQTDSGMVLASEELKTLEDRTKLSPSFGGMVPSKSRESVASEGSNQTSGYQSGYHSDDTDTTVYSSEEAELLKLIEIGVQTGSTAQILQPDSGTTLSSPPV

B1: NOTA-K3-VEGF121 (ligand)
chain: KKKAPMAEGGGQNHHEVVKFMDVYQRSYCHPIETLVDIFQEYPDEIEYIFKPSCVPLMRCGGCCNDEGLECVPTEESNITMQIMRIKPHQGQHIGEMSFLQHNKCECRPKKDRARQEKCDKPRR
modifications: NOTA (from p-SCN-Bn-NOTA) on lysine residues, estimated 1~2 NOTA residues in each NOTA-K3-VEGF121; positions not determined
In the case of B1, the IC50 is reported as 1.5 nM.
